Data on 2 molecules can be found in paper PMC9585516, “In Vitro Demonstration of Human Lipoyl Synthase Catalytic Activity in the Presence of NFU1” (ACS Bio & Med Chem Au, 2022).

The chains are these.
B1: human NFU1, amino acids 59-254, holo form (domain or fragment)
chain: GHMFIQTQDTPNPNSLKFIPGKPVLETRTMDFPTPAAAFRSPLARQLFRIEGVKSVFFGPDFITVTKENEELDWNLLKPDIYATIMDFFASGLPLVTEETPSGEAGSEEDDEVVAMIKELLDTRIRPTVQEDGGDVIYKGFEDGIVQLKLQGSCTSCPSSIITLKNGIQNMLQFYIPEVEGVEQVMDDESDEKEANSP
notes: Gly-His N-terminal appendage left after removal of the His6-SUMO tag; NFU1, human, Q9UMS0 (full length 1-254), N-terminally truncated variant, amino acids 59-254; Holo form with a [4Fe-4S] cluster; also called holo-NFU1; NFUI; source: E. coli BL21 (DE3) with pDB1282, purified under anoxic conditions (Ni-IMAC, SUMO tag removed with ULP1, SEC); not shown: His6, N-terminal, cleaved; SUMO, …
B2: human lipoyl synthase (LIAS), amino acids 28-372, holo form (enzyme)
chain: GHLSSLPDKKKELLQNGPDLQDFVSGDLADRSTWDEYKGNLKRQKGERLRLPPWLKTEIPMGKNYNKLKNTLRNLNLHTVCEEARCPNIGECWGGGEYATATATIMLMGDTCTRGCRFCSVKTARNPPPLDASEPYNTAKAIAEWGLDYVVLTSVDRDDMPDGGAEHIAKTVSYLKERNPKILVECLTPDFRGDLKAIEKVALSGLDVYAHNVETVPELQSKVRDPRANFDQSLRVLKHAKKVQPDVISKTSIMLGLGENDEQVYATMKALREADVDCLTLGQYMQPTRRHLKVEEYITPEKFKYWEKVGNELGFHYTASGPLVRSSYKAGEFFLKNLVAKRKTKDL
notes: Gly-His N-terminal appendage left after removal of the His6-SUMO tag; Holo form with two [4Fe-4S] clusters; also called holo-LIAS; source: E. coli BL21 (DE3) with pDB1282, purified under anoxic conditions (Ni-IMAC, SUMO tag removed with ULP1, SEC); not shown: His6, N-terminal, cleaved; SUMO, N-terminal, cleaved

Experiment [1] addresses B2. Nature of the experiment: ITC; 2 uL injections of LIAS (150 uM, syringe) into NFU1 (19 uM, cell) at 27 °C, anaerobic; 0.1 M HEPES pH 7.5, 0.5 M KCl, 5% glycerol, 2 mM TCEP. As to conditions: both partners purified.
The target in experiment [2] is B1. Nature of the experiment: SEC; HiPrep 16/60 Sephacryl HR S-200 in an anaerobic glovebox, 0.5 mL/min; 50 mM HEPES pH 7.5, 250 mM KCl, 10% glycerol, 2.5 mM TCEP, 10 mM BME; holo-LIAS alone (100 uM), holo-NFU1 alone (200 uM) and a 1:1 mixture; masses from a calibration curve; peak fractions checked by SDS-PAGE. As to conditions: both partners purified.

Regarding B1, the Kd in experiment [1] is 700 ± 200 nM. With B2, the “stoichiometry N” value in experiment [2] stood at 1.
